# Test results as given in PMC11445581.
# Assays:
# [1] = biological target: Anaphase Promoting Complex/Cyclosome (APC/C), endogenous, with APC8-mScarlet (human (endogenous in RPE-1)) (UniProt Q9UJX2); test: fluorescence cross-correlation spectroscopy (FCCS); in living RPE-1 Cyclin B1-mEmerald+/+; APC8-mScarlet+/+ cells (metaphase by p-0009), measured at the chromosomes; apparent
# [2] = biological target: Anaphase Promoting Complex/Cyclosome (APC/C), endogenous, with APC8-mScarlet (human (endogenous in RPE-1)) (UniProt Q9UJX2); test: fluorescence cross-correlation spectroscopy (FCCS); in living RPE-1 Cyclin B1-mEmerald+/+; APC8-mScarlet+/+ cells (metaphase by p-0009), measured in the cytoplasm; apparent
# [3] = biological target: Anaphase Promoting Complex/Cyclosome (APC/C), endogenous, with APC8-mScarlet (human (endogenous in RPE-1)) (UniProt Q9UJX2); test: fluorescence cross-correlation spectroscopy (FCCS); in living RPE-1 Cyclin B1-mEmerald+/+; APC8-mScarlet+/+ cells (metaphase by p-0009), measured at the spindle poles; apparent
# [4] = biological target: Anaphase Promoting Complex/Cyclosome (APC/C), endogenous, with APC8-mScarlet (human (endogenous in RPE-1)) (UniProt Q9UJX2); test: fluorescence cross-correlation spectroscopy (FCCS); in living RPE-1 Cyclin B1-mEmerald+/+; APC8-mScarlet+/+ cells (metaphase by p-0009), measured at the spindle fibres; apparent
# [5] = biological target: Anaphase Promoting Complex/Cyclosome (APC/C) with APC8-mScarlet, endogenous (human (endogenous in RPE-1)) (UniProt Q9UJX2); test: fluorescence cross-correlation spectroscopy (FCCS); living RPE-1 Cyclin B1-mEmerald+/+; APC8-mScarlet+/+ cells in metaphase (untreated; similar with MG132), measured in the cytoplasm; in vivo KD
# [6] = biological target: Anaphase Promoting Complex/Cyclosome (APC/C) with APC8-mScarlet, endogenous (human (endogenous in RPE-1)) (UniProt Q9UJX2); test: fluorescence cross-correlation spectroscopy (FCCS); living RPE-1 Cyclin B1-mEmerald+/+; APC8-mScarlet+/+ cells in metaphase (untreated; similar with MG132), measured at the chromatin (chromosomes); in vivo KD
# [7] = biological target: Nucleosome Core Particle NCP147, P04908;P68431;P62805; test: EMSA; details: 2 µM Cyclin B1; parent: est. 18; read off a plot
substance,measurement,setting,value
Cyclin B1-mEmerald (endogenous) (from UniProt P14635 1-433) (natural protein),Kd,[1],83 nM
same,Kd,[2],176 nM
same,Kd,[3],81 nM
same,Kd,[4],71 nM
"Cyclin B1-mEmerald (endogenous, both alleles tagged) (from UniProt P14635 1-433) (natural protein)",Kd,[5],180 nM
same,Kd,[6],80 nM
"Cyclin B1^WT-StrepII, full length (from UniProt P14635) L3A; R4A; V5A; T6A; R7A",other: Unbound NCP147 (%),[7],85%
"Cyclin B1^WT-StrepII, full length (from UniProt P14635) R4E; R7E",other: Unbound NCP147 (%),[7],54%
